pKd: −log10 of the molar value.
System: GST:p33ΔTMD (Citrus tristeza virus (isolate T36))
Assay: EMSA

Substance: LMT1 full length (1-780)
- pKd: 6.92

Reference: PMC8625556
